Consider one molecule from article PMC4141198, “The conserved ubiquitin-like protein Hub1 plays a critical role in splicing in human cells” (Journal of Molecular Cell Biology, 2014).

In this experiment the target is T1, 6xHis-tagged human Hub1 (human, UniProt Q9BZL1 1-73).
T1 construct: human Hub1 (UBL5) expressed from pET28a; also called UBL5; purified Hub1; source: E. coli BL21-CodonPlus (DE3)-RIL, purified (Ni-NTA, Superdex 75)
T1 sequence: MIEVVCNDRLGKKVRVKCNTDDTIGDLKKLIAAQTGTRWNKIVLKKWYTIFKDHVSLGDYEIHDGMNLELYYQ
Kind of experiment: crystal structure; Hub1 mixed with the HIND peptide at a molar ratio of 1:3, complex separated on Superdex 75; crystals at 20°C in 0.1 M Tris/HCl pH 9.0, 0.15 M sodium acetate, 20% PEG 4000; 2.0 Å. As to conditions: both partners purified.

B1: hSnu66 HIND peptide (residues 117-135) (peptide)
peptide: SLSIEETNKLRAKLGLKPL
notes: residues 117-135 of human Snu66 (SART1), the single HIND element; source: synthetic peptide
For the molecule B1, the binding result is “binds”.
